Experimental findings from publication PMC2888438 are described below.

The assay deals with TRIM25 (UniProt Q14258). In words: co-immunoprecipitation, Western blot. As to conditions: reference: wild type 2CARD; sites S8. In general terms: A western blot detects proteins with antibodies after separation by electrophoresis.

In the case of “RIG-I 2CARD region (CARD1 and CARD2) (from UniProt O95786) S8A”, the “binding against the reference” value was “stronger”.
